The values that follow come from PMC6337304, “Site-directed Mutagenesis of a β-Glycoside Hydrolase from Lentinula edodes” (Molecules, 2018).

In the data set the test system is [H][C@]12[C@H](OC(=O)c3ccccc3)[C@]3(O)C[C@H](OC(=O)[C@H](O)[C@@H](NC(=O)c4ccccc4)c4ccccc4)C(C)=C([C@@H](O)C(=O)[C@]1(C)[C@@H](O[C@@H]1OC[C@@H](O)[C@H](O)[C@H]1O)C[C@@]1([H])OC[C@@]21OC(C)=O)C3(C)C. Briefly: HPLC of 10-deacetyltaxol formation, Michaelis-Menten nonlinear fit. The class given is biochemical, Lentinula edodes. Particulars: XDT 0.039–5.0 mmol/L; other conditions as in earlier report. The text has this:
HPLC of 10-deacetyltaxol formation, Michaelis-Menten nonlinear fit on LXYL-P1−1

Consider LXYL-P1−1 (Lentinula edodes), for which the Km is listed as 0.50 (±0.01) mM; the maximal velocity (Vmax) (in general, the top rate of the reaction or transport when substrate is in excess) was 3.42 µM/min; the kcat – broadly, the number of substrate molecules converted per active site and unit of time at saturation – came to 2.05 ± 0.02 s⁻¹; the kcat/Km – broadly, the second-order rate constant that governs catalysis at low substrate concentration – was 4100 M⁻¹ s⁻¹.

LXYL-P1−1 (Lentinula edodes; I368E): the Km is listed as 0.42 (±0.01) mM, the maximum rate (Vmax) was found to be 4.02 µM/min, the kcat came to 2.41 ± 0.08 s⁻¹ and the kcat/Km is 5740 M⁻¹ s⁻¹.

As to “LXYL-P1−1 (Lentinula edodes; I368E/V91S)”, the Km is reported as 0.20 (±0.01) mM, the maximum rate (Vmax) was found to be 3.43 µM/min and the kcat is 2.06 ± 0.01 s⁻¹.

Turning to LXYL-P1−1 (Lentinula edodes; I368T), the Km was 0.35 (±0.10) mM, the maximal velocity (Vmax) stood at 2.6 µM/min, the kcat worked out at 1.56 ± 0.34 s⁻¹ and the specificity constant (kcat/Km) was 4460 M⁻¹ s⁻¹.
